The numbers were not newly measured in paper PMC13348789, which cites them from elsewhere.

As a reminder, the Kd is the constant that tells how readily two partners part at equilibrium.

The target in the series is IL-2Rβ/γc intermediate-affinity receptor (Homo sapiens) (UniProt P14784).
Chain of UniProt P14784 (P14784 27-240, chain 1 of 2): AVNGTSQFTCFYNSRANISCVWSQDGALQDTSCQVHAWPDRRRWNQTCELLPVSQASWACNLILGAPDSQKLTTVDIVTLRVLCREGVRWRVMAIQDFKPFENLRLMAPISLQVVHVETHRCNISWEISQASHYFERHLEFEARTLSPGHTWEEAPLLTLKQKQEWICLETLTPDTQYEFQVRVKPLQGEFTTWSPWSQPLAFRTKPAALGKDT
Chain of UniProt P14784 (P31785 23-262, chain 2 of 2, further chain): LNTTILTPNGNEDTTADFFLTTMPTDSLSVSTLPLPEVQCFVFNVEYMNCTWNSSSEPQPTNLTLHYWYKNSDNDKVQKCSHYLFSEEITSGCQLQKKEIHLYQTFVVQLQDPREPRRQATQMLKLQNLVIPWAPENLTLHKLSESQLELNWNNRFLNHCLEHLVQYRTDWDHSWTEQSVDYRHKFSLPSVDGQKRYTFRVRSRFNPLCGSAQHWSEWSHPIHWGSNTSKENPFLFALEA

With IL-2 (from UniProt P60568), the dissociation constant (Kd) is 1 nM.
